Data: article PMC4356366, “Structures of the human Pals1 PDZ domain with and without ligand suggest gated access of Crb to the PDZ peptide-binding groove” (Acta Crystallographica Section D: Biological Crystallography, 2015)
Where a chain is given by its changes, count along the chain named. Numbers in names are those of the source. Where “and” joins values, the source holds several entries; their conditions need not be identical. Equal values may be shown once. Entries after “also recorded” stand apart in the source; their conditions may differ. Ends that are not written are not given here.

T1: human Pals1 PDZ domain (Pals1^PDZ; residues 251–335) (Homo sapiens, UniProt Q8N3R9)
T1 construct: the PDZ domain of human Pals1 (Pals1^PDZ; residues 251–335); GST (N, cleaved yes); made in house; host or cells: Escherichia coli FB810
T1 sequence (Q8N3R9 251-335): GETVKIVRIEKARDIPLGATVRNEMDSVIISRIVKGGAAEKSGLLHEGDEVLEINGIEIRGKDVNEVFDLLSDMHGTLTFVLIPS

T2: human Pals1 PDZ domain (Pals1^PDZ; residues 251-335), wild type (human, UniProt Q8N3R9 251-335)
T2 construct: vector-derived residues Gly-Pro-Leu-Gly-Ser at the amino-terminus of Pals1^PDZ, left after removal of GST; Pals1 (MPP5), human, PDZ domain, residues 251-335; also called MPP5; protein associated with Lin-7; source: E. coli FB810, purified (glutathione Sepharose 4B, GST removed with GST-3C protease, Superdex S75)
T2 sequence: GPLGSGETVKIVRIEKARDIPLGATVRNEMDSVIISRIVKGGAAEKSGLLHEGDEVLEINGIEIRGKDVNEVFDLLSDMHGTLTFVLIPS

T3: human Pals1 PDZ domain (Pals1^PDZ; residues 251-335), wild type (human, UniProt Q8N3R9 251-335)
T3 chain: T2 sequence

T4: human Pals1 PDZ domain F318A mutant (human, UniProt Q8N3R9 251-335, F318A)
T4 sequence: T2 sequence with F73A

T5: human Pals1 PDZ domain F318C mutant (human, UniProt Q8N3R9 251-335, F318C)
T5 construct: Pals1 (MPP5), human, PDZ domain, residues 251-335, F318C; The methods name only the wild type and F318A; also called Pals1^PDZ F318C
T5 sequence (looked up): T1 sequence (Q8N3R9 251-335) with F68C

B1: human Pals1 PDZ domain (Pals1^PDZ; residues 251-335), wild type (domain or fragment)
chain: T2 sequence
B2: fluorescein-labelled human Crb1 peptide, residues 1390-1406 (Crb^17) (peptide)
peptide: RVEMWNLMPPPAMERLI
modifications: also: fluorescein label, position not given here
notes: also called fluorescein-labelled Crb^17; Crumbs peptide (homologue 1)
B3: human Pals1 PDZ domain F318A mutant (domain or fragment)
chain: T2 sequence with F73A
notes: vector-derived residues Gly-Pro-Leu-Gly-Ser at the amino-terminus of Pals1^PDZ, left after removal of GST (told for the wild type, same preparation); Pals1 (MPP5), human, PDZ domain, residues 251-335, F318A; also called Pals1^PDZ F318A; source: E. coli FB810, purified (glutathione Sepharose 4B, GST removed with GST-3C protease, Superdex S75)

Tests used:
[1] = target: T1, human Pals1 PDZ domain (Pals1^PDZ; residues 251–335); test: Fluorescence polarization binding assay, fluorescein-labelled Crb peptides with Pals1^PDZ; conditions: Fp, fluorescein-labelled peptide 50 nM, protein 0 to 300 µM, 20 mM HEPES pH 7.5, 100 mM NaCl, 1 mM DTT, read after 5 min; measured in parallel from the same Pals1 preparation; representative of three independent experiments
Description: Fluorescence polarization (Fp) assays were performed to determine the K d for each peptide following a previously described protocol (Guettler et al., 2008[▶]). Binding assays were performed in 20 mM HEPES pH 7.5, 100 mM NaCl, 1 mM DTT. The reaction mixtures contained a fixed concentration of fluorescein-labelled peptide (50 nM) and a protein concentration ranging from 0 to 300 µM depending on the dissociation constant. The 20 µl reactions were carried out in a 384-well plate and measured after 5 min using a Tecan Safire2 plate reader with excitation at 470 nm and emission at 525 nm. The anisotropy values were normalized and the K d values were determined using nonlinear regression with the graphics program Prism (Heyduk & Lee, 1990[▶]).
To characterize the interaction between the PDZ domain of human Pals1 (Pals1^PDZ; residues 251–335) and the intracellular segment of human Crb1 in vitro, we used fluorescence polarization (Fp) assays with a fluorescein-labelled peptide containing 17 carboxy-terminal residues 1390–1406 (defined hereafter as Crb^17). […] The Pals1^PDZ–Crb^17 interaction was stable to size-exclusion chromatography as detected from the Crb^17 intrinsic tryptophan fluorescence (data not shown). […]

[2] = target: Individual Crb^17 substitutions E1403A, R1404A and L1405A; test: fluorescence polarisation; fixed fluorescein-labelled peptide (50 nM), Pals1 PDZ protein titrated 0 to 300 µM; 20 mM HEPES pH 7.5, 100 mM NaCl, 1 mM DTT; 20 µl in 384-well plate, read after 5 min
[3] = target: T2, human Pals1 PDZ domain (Pals1^PDZ; …); test: as above; conditions: both partners purified
[4] = target: T3, human Pals1 PDZ domain (Pals1^PDZ; …); test: FP
[5] = target: T4, human Pals1 PDZ domain F318A mutant; test: FP
[6] = target: T5, human Pals1 PDZ domain F318C mutant; test: fluorescence polarisation; fixed fluorescein-labelled peptide (50 nM), Pals1 PDZ protein titrated 0 to 300 µM; 20 mM HEPES pH 7.5, 100 mM NaCl, 1 mM DTT; 20 µl in 384-well plate, read after 5 min; conditions: both partners purified
[7] = target: B2; test: as above; conditions: both partners purified

| Molecule | binding result [3] | Kd [4] [µM] | also measured |
| --- | --- | --- | --- |
| Crb^17 I1406A: Crb^17 peptide with carboxy-terminal Ile1406 replaced by alanine, fluorescein-labelled (RVEMWNLMPPPAMERLA; also: fluorescein label, position not given here) |  |  | dissociation constant (Kd) for Pals1^PDZ [1]: completely abolished detectable binding; also recorded: Not detectable |
| B1 |  |  | Kd [2]: 52 to 55 µM |
| RVEMWNLMPPPAAERLI (also: fluorescein label, position not given here) [fluorescein-labelled Crb^17 M1402A] | binds | 8.1 |  |
| RVEMWNLMPPPAMEALI (also: fluorescein label, position not given here) [fluorescein-labelled Crb^17 R1404A] | binds | 51.5 |  |
| AMERLI (also: fluorescein label, position not given here) [fluorescein-labelled shorter Crb1 peptide spanning residues 1401-1406 (Crb^6)] | binds | 16.8 |  |
| RVEMWNLMPPPAMERAI (also: fluorescein label, position not given here) [fluorescein-labelled Crb^17 L1405A] | binds | 55.3 |  |
| B2 |  |  | Kd [5]: 1.8 µM; Kd [3]: 9.2 µM and 12.4 µM; Kd [6]: 5 µM |
| B3 |  |  | fold tighter binding than wild-type Pals1^PDZ [7]: 5 fold |
| RVEMWNLMPPPAMARLI (also: fluorescein label, position not given here) [fluorescein-labelled Crb^17 E1403A] | binds | 53.1 |  |
